# In the RNAGym collection of RNA variant scans (doi:10.7554/elife.90254):
# B1: LINE1-mini (parent)
# chain: GGCAGAGCUCAACACAGCGUGGCAAAGUGGCUGUGGCUAGACUGCC
# Variants of: B1
# Experiment: self-cleavage, relative activity (ratio to wild type); higher = more cleavage; in vitro, sequencing; the parent is a self-cleaving ribozyme
row,Variant,self-cleavage
1,G2U C42G,0.02
2,G2U C42U,0.1
3,G2U C42A,0.06
4,G2C C10U,0.03
5,G2C C10G,0.03
6,G2C C10A,0.03
7,G2U U43C,0.06
8,G2U U43G,0.02
9,G2U U43A,0.04
10,G2C G5U,0.03
11,G2C G5A,0.05
12,G2C G5C,0.02
13,G2A G33C,0.05
14,G2A G33U,0.13
15,G2A G33A,0.2
16,G2A G35C,0.34
17,G2A G35A,0.26
18,G2A G35U,0.41
19,G2C C23G,0.12
20,G2C C23A,0.08
21,G2C C23U,0.16
22,G2C A24G,0.09
23,G2C A24U,0.15
24,G2C A24C,0.06

row,Variant,self-cleavage
1,G2C A6C,0.12
2,G2C A6G,0.07
3,G2C A6U,0.14
4,G2C G35U,0.23
5,G2C G35A,0.06
6,G2C G35C,0.05
7,G2C G44C,0.18
8,G2C G44U,0.14
9,G2C G44A,0.17
10,G2U U20C,0.05
11,G2U U20G,0.05
12,G2U U20A,0.07
13,G2A U38C,0.7
14,G2A U38A,0.71
15,G2A U38G,0.05
16,C3A A6G,0.2
17,C3A A6U,0.76
18,C3A A6C,0.38
19,G2C U9G,0.07
20,G2C U9A,0.16
21,G2C U9C,0.03
22,C3A A26U,0.49
23,C3A A26G,0.67
24,C3A A26C,0.44

row,Variant,self-cleavage
1,G2U A24U,0.19
2,G2U A24G,0.06
3,G2U A24C,0.07
4,G2C U32G,0.02
5,G2C U32A,0.17
6,G2C U32C,0.08
7,G2U G40A,0.03
8,G2U G40U,0.04
9,G2U G40C,0.03
10,G2C A41U,0.12
11,G2C A41C,0.12
12,G2C A41G,0.17
13,G2U U32A,0.03
14,G2U U32G,0.03
15,G2U U32C,0.03
16,G2C A11C,0.02
17,G2C A11U,0.03
18,G2C A11G,0.02
19,G2U C15G,0.02
20,G2U C15U,0.05
21,G2U C15A,0.04
22,G2U G17A,0.03
23,G2U G17C,0.05
24,G2U G17U,0.04

row,Variant,self-cleavage
1,C3A,0.58
2,G2C G33C,0.02
3,G2C G33U,0.05
4,G2C G33A,0.04
5,C3A A39U,0.48
6,C3A A39C,0.11
7,C3A A39G,0.57
8,G2U A14G,0.08
9,G2U A14U,0.04
10,G2U A14C,0.01
11,G2U U9G,0.06
12,G2U U9A,0.06
13,G2U U9C,0.01
14,G2C C45G,0.61
15,G2C C45U,0.19
16,G2C C45A,0.25
17,G2C C3G,0.07
18,G2C C3A,0.42
19,G2C C3U,0.54
20,G2U U28C,0.06
21,G2U U28A,0.07
22,G2U U28G,0.04
23,G2C A4U,0.08
24,G2C A4G,0.16

row,Variant,self-cleavage
1,G2C A4C,0.11
2,C3A A4G,0.17
3,C3A A4U,0.38
4,C3A A4C,0.25
5,G2A U34A,0.18
6,G2A U34C,0.19
7,G2A U34G,0.13
8,G2U A6U,0.16
9,G2U A6G,0.03
10,G2U A6C,0.04
11,G2U A16U,0.02
12,G2U A16C,0.13
13,G2U A16G,0.05
14,G2C G19A,0.17
15,G2C G19C,0.16
16,G2C G19U,0.11
17,G2C U38G,0.03
18,G2C U38C,0.04
19,G2C U38A,0.06
20,G2U G21A,0.25
21,G2U G21U,0.14
22,G2U G21C,0.09
23,G2C C31A,0.07
24,G2C C31G,0.06

row,Variant,self-cleavage
1,G2C C31U,0.08
2,G2A G44A,0.49
3,G2A G44U,0.75
4,G2A G44C,0.56
5,G2C U34G,0.12
6,G2C U34A,0.07
7,G2C U34C,0.06
8,G2U G35A,0.05
9,G2U G35U,0.07
10,G2U G35C,0.05
11,G2U G29A,0.09
12,G2U G29U,0.11
13,G2U G29C,0.04
14,G2U G27A,0.15
15,G2U G27C,0.09
16,G2U G27U,0.06
17,G2C C13G,0.03
18,G2C C13A,0.08
19,G2C C13U,0.18
20,G2U G30A,0.09
21,G2U G30C,0.1
22,G2U G30U,0.1
23,G2U U38C,0.05
24,G2U U38A,0.05

row,Variant,self-cleavage
1,G2U U38G,0.02
2,G2A G40C,0.12
3,G2A G40U,0.29
4,G2A G40A,0.35
5,G2A U32G,0.2
6,G2A U32C,0.24
7,G2A U32A,0.14
8,G2A U43A,0.14
9,G2A U43C,0.13
10,G2A U43G,0.14
11,G2U C37A,0.03
12,G2U C37G,0.04
13,G2U C37U,0.05
14,G2U G44U,0.06
15,G2U G44C,0.09
16,G2U G44A,0.08
17,G2U C13U,0.06
18,G2U C13A,0.06
19,G2U C13G,0.02
20,G2C G21C,0.25
21,G2C G21U,0.12
22,G2C G21A,0.51
23,G2U A11C,0.01
